These results are taken from publication PMC8844826.

Experiment [1] concerns the target full length PSD-95 (FL-PSD-95, 1-724) (human) (UniProt P78352). In words: fluorescence polarisation; competition at pH 9.4: PSD-95 (150 nM) and fluorescent tracer, increasing NA-1; apparent. In general terms: Polarisation of emitted light reports the rotation of a fluorescent probe.
For experiment [2] the target is unchanged. In words: fluorescence polarisation; competition at pH 8.4: PSD-95 (150 nM) and fluorescent tracer, increasing NA-1; apparent.
Experiment [3] shares this target. Put plainly: fluorescence polarisation; competition at pH 7.4: PSD-95 (150 nM) and fluorescent tracer, increasing NA-1; apparent.
Experiment [4] shares this target. In words: fluorescence polarisation; competition at pH 6.4: PSD-95 (150 nM) and fluorescent tracer, increasing NA-1; apparent.

Sequence of full length PSD-95 (FL-PSD-95, 1-724) (human) (P78352 whole entry): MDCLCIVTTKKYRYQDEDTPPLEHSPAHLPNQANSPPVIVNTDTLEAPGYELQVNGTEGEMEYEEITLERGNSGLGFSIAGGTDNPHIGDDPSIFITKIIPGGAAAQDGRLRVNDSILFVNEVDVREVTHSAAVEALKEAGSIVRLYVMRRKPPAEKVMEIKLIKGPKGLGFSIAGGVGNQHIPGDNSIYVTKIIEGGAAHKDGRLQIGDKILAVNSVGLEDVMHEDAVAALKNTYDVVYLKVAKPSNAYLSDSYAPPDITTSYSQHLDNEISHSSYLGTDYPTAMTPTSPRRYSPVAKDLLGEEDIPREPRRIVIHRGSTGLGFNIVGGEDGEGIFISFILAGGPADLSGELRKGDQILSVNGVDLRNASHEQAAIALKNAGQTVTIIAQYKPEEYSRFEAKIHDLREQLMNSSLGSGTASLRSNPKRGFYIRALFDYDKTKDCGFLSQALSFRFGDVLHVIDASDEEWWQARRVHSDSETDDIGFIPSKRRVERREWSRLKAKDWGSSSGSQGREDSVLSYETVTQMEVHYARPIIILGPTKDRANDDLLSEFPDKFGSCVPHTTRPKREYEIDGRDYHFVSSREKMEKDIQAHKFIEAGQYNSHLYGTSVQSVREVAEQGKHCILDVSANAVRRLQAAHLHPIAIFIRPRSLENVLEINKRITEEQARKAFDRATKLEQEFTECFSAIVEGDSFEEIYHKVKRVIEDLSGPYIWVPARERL

Turning to “NA-1 (nerinetide): TAT peptide fused to C-terminal residues of the GluN2B NMDAR subunit”, the Ki in experiment [1] stood at 4.1 µM; in experiment [2], 2.6 µM; in experiment [3] it was 4.5 µM; in experiment [4], 7.2 µM.
